Each block holds one binder with its values, some of them ahead of it.
Target: Drug A
Test: cell-based or functional assay

molar excess of Multimer G that mitigated interference, gel card, Drug A 1000 µg/mL: 4 fold molar excess relative to Drug A | molar excess of Multimer G that mitigated interference, gel card, Drug A 2000 µg/mL: 6 fold molar excess relative to Drug A | molar excess of Multimer G that mitigated interference, gel card, Drug A between 0.1 and 100 (printed ng/mL): 3 fold molar excess relative to Drug A
B1: anti-SIRP multimer G (antibody, mouse IgG2a)
heavy: DVQLVESGGGVVRPGESLRLSCAASGFTFSSNAMSWVRQAPGKGLEWLAGISAGGSDTYYPASVKGRFTISRDNSKNTLYLQMNTLTAEDTAVYYCARETWNHLFDYWGLGTLVTVSSAKTTAPSVYPLAPVCGDTTGSSVTLGCLVKGYFPEPVTLTWNSGSLSSGVHTFPAVLQSDLYTLSSSVTVTSSTWPSQSITCNVAHPASSTKVDKKIEPRGPTIKPCPPCKCPAPNLLGGPSVFIFPPKIKDVLMISLSPIVTCVVVDVSEDDPDVQISWFVNNVEVHTAQTQTHREDYNSTLRVVSALPIQHQDWMSGKEFKCKVNNKDLPAPIERTISKPKGSVRAPQVYVLPPPEEEMTKKQVTLTCMVTDFMPEDIYVEWTNNGKTELNYKNTEPVLDSDGSYFMYSKLRVEKKNWVERNSYSCSVVHEGLHNHHTTKSFSRTPG
light: ALTQPASVSANPGETVKIACSGGDYYSYYYGWYQQKAPGSALVTVIYSDDKRPSDIPSRFSGSASGSTATLTITGVRAEDEAVYYCGGYDYSTYANAFGAGTTLTVLGQPKSSPSVTLFPPSSEELETNKATLVCTITDFYPGVVTVDWKVDGTPVTQGMETTQPSKQSNNKYMASSYLTLTARAWERHSSYSCQVTHEGHTVEKSLSRADCS

molar ratio to Drug A at which interference was mitigated, SPRCA: ≥ 1.25 x molar ratio to Drug A
B2: anti-SIRP multimer E (antibody, mouse IgG1, N297A)
heavy: DVQLVESGGGVVRPGESLRLSCAASGFTFSSNAMSWVRQAPGKGLEWLAGISAGGSDTYYPASVKGRFTISRDNSKNTLYLQMNTLTAEDTAVYYCARETWNHLFDYWGLGTLVTVSSAKTTPPSVYPLAPGSAAQTNSMVTLGCLVKGYFPEPVTVTWNSGSLSSGVHTFPAVLQSDLYTLSSSVTVPSSTWPSETVTCNVAHPASSTKVDKKIVPRDCGCKPCICTVPEVSSVFIFPPKPKDVLTITLTPKVTCVVVDISKDDPEVQFSWFVDDVEVHTAQTQPREEQFASTFRSVSELPIMHQDWLNGKEFKCRVNSAAFPAPIEKTISKTKGRPKAPQVYTIPPPKEQMAKDKVSLTCMITDFFPEDITVEWQWNGQPAENYKNTQPIMDTDGSYFIYSKLNVQKSNWEAGNTFTCSVLHEGLHNHHTEKSLSHSPG
light: ALTQPASVSANPGETVKIACSGGDYYSYYYGWYQQKAPGSALVTVIYSDDKRPSDIPSRFSGSASGSTATLTITGVRAEDEAVYYCGGYDYSTYANAFGAGTTLTVLGQPKSSPSVTLFPPSSEELETNKATLVCTITDFYPGVVTVDWKVDGTPVTQGMETTQPSKQSNNKYMASSYLTLTARAWERHSSYSCQVTHEGHTVEKSLSRADCS

molar ratio to Drug A at which interference was mitigated, SPRCA: ≥ 1.25 x molar ratio to Drug A
B3: anti-SIRP multimer F (antibody, mouse IgG1, N297A, V domains shown)
VH: DVQLVESGGGVVRPGESLRLSCAASGFTFSSYAMSWVRQAPGKGLEWLAGISAGGSDTYYIDSVKGRFTISRDNPKNSLYLQMSSLTAEDTAVYYCARETWNHLFDYWGLGTLVTVSS
VL: ALTQPASVSANPGETVKITCSGGDYYSTYYAWYQQKSPGSAPVTVIHSDDKRPSDIPSRFSGSASGSAATLIITGVRVEDEAVYYCGGYDGRTYINTFGAGTTLTVLG

molar ratio to Drug A (130 nM) at which no agglutination was observed, IAT tube assay: 2.5 x molar ratio to Drug A | molar ratio to Drug A (130 nM) at which no interference was observed, SPRCA: ≥ 0.63 x molar ratio to Drug A
B4: anti-SIRP multimer D (antibody, V domains shown)
VH: DVQLVESGGGVVRPGESLRLSCAASGFTFSSNAMSWVRQAPGKGLEWLAGISAGGSDTYYPASVKGRFTISRDNSKNTLYLQMNTLTAEDTAVYYCARETWNHLFDYWGLGTLVTVSS
VL: ALTQPASVSANPGETVKIACSGGDYYSYYYGWYQQKAPGSALVTVIYSDDKRPSDIPSRFSGSASGSTATLTITGVRAEDEAVYYCGGYDYSTYANAFGAGTTLTVL

From patent publication US20220196651A1 (ALX ONCOLOGY, published 2022)
